Laboratory results: patent US6034062A, “Bone morphogenetic protein (BMP)-9 compositions and their uses” (Genetics Institute, Inc., priority 1997, dated 2000)
Like-named read-outs stand apart in the source and are kept apart here.

Legend:
liver plasma membranes = experiment: [125I]rhBMP-9 binding to liver plasma membranes; conditions: adult rat liver plasma membranes, displaceable by 100-fold excess of unlabeled rhBMP-9
Experimental: (§1) To determine potential target tissues for BMP-9, plasma membrane preparations from adult rat organs are screened for specific [^125 I]rhBMP-9 binding. Plasma membranes are prepared by the methods of Neville, J. Biophys Biochem Cytol 8:412-422 (1960) and Ray, Biochim Biophys Acta 196:1-9 (1970) with the following modifications: Fresh tissues from adult male Long-Evans rats are homogenized with 10 strokes of a teflon homogenizer. Plasma membranes are collected from discontinuous sucrose gradients at 37%/41% sucrose interface and the 41%/45% sucrose interface. Homogenization buffer and sucrose solutions are supplemented with 0.7 μg/ml leupeptin, 2 μg/ml aprotinin and 240 μg/ml pefabloc. Protein levels in plasma membrane preparations are determined by the bicinchoninic acid assay (Pierce, Rockford, Ill.) using immunoglobulin G as a standard.
(§2) BMP-9 binding is carried out by suspending plasma membranes at 30 μg/100μl in binding buffer (136.9 mM NaCl, 5.37 mM KCl, 1.26 mM CaCl2, 0.64 mM MgSO4, 0.34 mM Na2 HPO4, 0.44 mM KH2 PO4, 0.49 mM MgCl2, 25 mM HEPES and 0.5% BSA, pH 7.4) containing o.5 ng [^125 I]rhBMP-9. Binding is allowed to equilibrate by incubation for 16 h at 4° C. […]
(§3) To verify that this specific binding is of high affinity, a more complete displacement profile is determined with lung and kidney plasma membranes.

[1] = system: BMP-9 receptors expressed on HepG2 cells; experiment: 125I-BMP-9 binding to HepG2 cells
Experimental: BMP-9 responsiveness in parenchymal liver cells is tested by screening four liver cell lines for their ability to bind iodinated, CHO-derived BMP-9. […] Specific binding of BMP-9 to HepG2 cells is carried out by incubating HepG2 cells grown to confluence in Dulbecco's Modified Eagle's Medium (DME) containing 10% heat-inactivated fetal calf serum (FCS) on gelatinized 6 well plates with 2 ng/ml ^125 I-BMP-9 and increasing concentrations of unlabelled BMP-9 in binding buffer (136.9 mM NaCl, 5.37 mM KCl, 1.26 mM CaCl2, 0.64 mM MgSO4, 0.34 mM Na2 HPO4, 0.44 mM KH2 PO4, 0.49 mM MgCl2, 25 mM HEPES and 0.5% BSA, pH 7.4) for 20 hours at 4° C. to achieve binding equilibrium. This incubation follows a one hour preincubation at 37° C. in binding buffer alone. For crosslinking experiments, the cells were incubated with 500 μM disuccinimidyl suberate for 20 minutes at […] following binding. Cell extracts were analyzed on SDS-PAGE. […] To test the binding specificity of the receptors for BMP-9, HepG2 cells were incubated with ^125 I-BMP-9 and a 250-fold excess of different unlabeled ligands.

kidney plasma membranes = experiment: [125I]rhBMP-9 binding to kidney plasma membranes; design: species or system rat
Experimental: as §1, §2, §3

primary rat hepatocytes = experiment: Primary rat hepatocyte 3H-thymidine incorporation; type: cell-based
Experimental: As a first indication of BMP-9 effects on confluent, serum starved HepG2 cells, cell proliferation is examined as determined by ^3 H-thymidine incorporation and cell counting. HepG2 cells are plated at […] in 96 well plates and cultured for 48 hours in DME/0.1% FCS to synchronize the cell cycle are treated for 24 hours with or without BMP-9 in the presence of 0.1% FCS. In ^3 H-thymidine incorporation assays, ^3 H-thymidine was included during the last 4 hours of treatment and cellular DNA was collected with a 96 well plate cell harvester. Proliferation was assayed by quantifying ethanol-precipitable ^3 H-thymidine incorporation by liquid scintillation counting. For cell counting assays, cells were trypsinized and counted with a hemacytometer. […] BMP-9 stimulates ^3 H-thymidine incorporation in HepG2 cells approximately five fold.
To determine if this proliferative effect of BMP-9 was unique to the HepG2 liver tumor cell line, primary rat hepatocytes were tested for effects of BMP-9 on ^3 H-thymidine incorporated as shown in FIG. 4.

WI-38 cells = experiment: Cell proliferation, [3H]thymidine incorporation, WI-38; type: cell-based; conditions: high doses of rhBMP-9, 24 h
Experimental: (§4) Several cell lines are tested for BMP-9 responsiveness in vitro. Cell proliferation, as indicated by [^3 H]thymidine incorporation, is determined in cell lines derived from kidney and lung. Cell proliferation is determined by measuring [^3 H]thymidine incorporation in subconfluent cells treated for 24 h with or without growth factors. NRK-52E (ATCC CRL 1571), WI-38 (ATCC CCL-75), CCD-11Lu (ATCC CCL-202), CCD-16Lu (ATCC CCL-204), and A-549 (ATCC CCL-185) cell lines are placed at 10^4 cells/well in 96 well plates and assayed for [^3 H]thymidine incorporation as described above. IMCD-3 cells (ATCC #CRL-2123) are cultured in a collagen matrix as described by Barros et al., PNAS USA 92:4412-4416 (1995), and treated with growth factors for 6 days to allow tubule formation.

[2] = system: NRK-52E kidney epithelial cells; experiment: Cell proliferation, [3H]thymidine incorporation, NRK-52E; type: cell-based; conditions: subconfluent, 24 h
Experimental: as §4

lung plasma membranes = experiment: [125I]rhBMP-9 binding to lung plasma membranes; design: species or system rat
Experimental: as §1, §2, §3

specific [125I]rhBMP-9 binding (liver plasma membranes): evident | specific [125I]rhBMP-9 binding (kidney plasma membranes; adult rat kidney plasma membranes, displaceable by 100-fold excess of unlabeled rhBMP-9): evident | Kd (kidney plasma membranes; rat kidney plasma membranes): 0.3 nM | specific [125I]rhBMP-9 binding (lung plasma membranes; adult rat lung plasma membranes, displaceable by 100-fold excess of unlabeled rhBMP-9): evident | Kd (lung plasma membranes; rat lung plasma membranes): 0.6 nM
B1: BMP-9: recombinant human bone morphogenetic protein-9, mature amino acids #1-#110 of SEQ ID NO:9, expressed in CHO cells (protein)
chain: TRECSRSCPRTAPQRQVRAVTRRTRMAHVAAGSTLARRKRSAGAGSHCQKTSLRVNFEDIGWDSWIIAPKEYEAYECKGGCFFPLADDVTPTKHAIVQTLVHLKFPTKVG
modifications: 125I-iodinated as tracer; unlabelled BMP-9 used as the displacing ligand
Kd ([1]; HepG2 cells, Scatchard analysis, 20 hours at 4° C., read-out: Kd of high affinity receptors): 0.3 nM | Kd ([1]; HepG2 cells, estimated, read-out: Kd of the high affinity binding sites): ~0.27 nM | Kd (estimated binding affinity) expressed ([1]; HepG2 cells, printed as Kd =0.3 nM=8 ng/ml): 8 ng/mL | specific binding of 125I-BMP-9 ([1]; HepG2 liver cell line, iodinated CHO-derived BMP-9): highest degree of binding | 3H-thymidine incorporation (primary rat hepatocytes; confluent primary rat hepatocytes): confluent primary hepatocytes did not | 3H-thymidine incorporation (primary rat hepatocytes; subconfluent primary rat hepatocytes, 36 hours, serum-free): stimulated ^3 h-thymidine incorporation in primary hepatocytes, although not as markedly as EGF | cell proliferation ([3H]thymidine incorporation) (WI-38 cells): statistically significant stimulation | cell proliferation ([3H]thymidine incorporation) [2]: inhibited proliferation
